Laboratory results: the supplement of paper PMC9732359
± gives the uncertainty stated by the source.

assay: protein stability index of a GFP-peptide fusion (yeast GPS) (PSI 1-4); higher = more stable; sorted into four equal gates, so the index is relative within each strain; conditions: pdr5∆
Outline: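 The protein stability index of a peptide was calculated by multiplying its read frequency in each gate by that gate's number and adding the products. The peptides were tiled 17-residue stretches of yeast proteins, fused downstream of GFP on a Cherry-expressing plasmid and carried in yeast as a pooled library. Mid-log cultures in leucine-free medium were sorted into four equal gates by GFP/Cherry ratio, and each gate's plasmids were PCR-amplified and Illumina-sequenced.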

Sequence | protein stability index
LVQQIQKETQKVTKIWS [PRP28] | 2.58 ± 0.064

same assay, conditions: san1∆

Sequence | protein stability index
LNFYITNVPKAKKRKTL [SIR3] | 1.63 ± 0.12
LNLFSNVLKAPFIKSES [SIR4] | 1.26 ± 0.13
LNLSLHKLDLAKRNLDA [SMC2] | 2.62 ± 0.047
LNSFVNDIFERIATEAS [HTB1] | 2.63 ± 0.1
LNSLKDERSQGEKNFTS [SMC4] | 3.05 ± 0.087
LNSMEKDRISHEVVQDD [PCI8] | 3.01 ± 0.067
LNTVLIADLDTEAEETS [RRP43] | 3.04 ± 0.047
LNVIIDQLAVSPEQIDA [YCS4] | 2.11 ± 0.064
LNVTPSKRPQLGEIPNP [SIR4] | 2.66 ± 0.075
LNVYHYFGENSSISWKN [YJL039C/NUP192] | 2.65 ± 0.083
LNYGVYLNGTLIGSIRF [RET1] | 2.53 ± 0.088
LPDGKNGNLEEEFAYVD [MED6] | 3.42 ± 0.052
LPDPILKNFLSYESLKK [MCD1] | 3.34 ± 0.046
LPGKVNTKEEFAAAPND [SNF5] | 2.84 ± 0.058
LPTNPTLDKPNAEATKE [CSE2] | 2.89 ± 0.046
LPYLSDTCAVSFDAVSD [YJR042W/NUP85] | 2.55 ± 0.078
LQAIDLLENPNCFFDVI [DIS3] | 3.06 ± 0.056
LQALKANDEEAYIKLLD [SNF2] | 3.36 ± 0.11
LQAQDRAHRIGQKNEVR [SNF2] | 2.86 ± 0.073
LQCPMLYVESTGKFVLQ [CSN12] | 2.43 ± 0.15
LQDELHKVSSQSTNLNR [YCS4] | 3.05 ± 0.045
LQEIYQTDAIKSDEAKW [RPN5] | 2.13 ± 0.13
LQIVNQLPANMVHLYSI [RPC17] | 1.67 ± 0.068
LQKAVRGHVLQFEWHQN [SNF2] | 1.37 ± 0.16
LQKEFLPHITQLEGFES [RPB2] | 1.69 ± 0.053
LQLSKTPLSIKIMVAEW [SRB8] | 2.69 ± 0.13
LQMRLKESEISHNENKM [YIL149C/MLP2] | 3.18 ± 0.068

Sequence | protein stability index
LQNSERDVELSSDELKV [SMC4] | 2.73 ± 0.066
LQQQTPVTIWLFEQIGI [SME1] | 1.64 ± 0.072
LQRQQRKSKLNLDNLQK [POP4] | 3.09 ± 0.064
LQSDKNFLDNCLFENDL [ITC1] | 2.92 ± 0.055
LQSLTSKGYVKTQFSWQ [RPS10A] | 2.76 ± 0.086
LRADKLYEKLKQEIMMS [ISW2] | 1.78 ± 0.25
LREVVELPLLSPERFAT [RPT1] | 2.47 ± 0.1
LRKLKKMNNKPERFMVF [RPC53] | 3.03 ± 0.099
LRKNKLGYARFILLDRL [SMC4] | 1.14 ± 0.14
LRLRGGIIEPSLKALAS [RPL40A] | 2.7 ± 0.048
LRNLHMKRMVAQWERSK [SNF12] | 2.89 ± 0.067
LRPGQEISLKAHCILGI [RPC40] | 2.14 ± 0.099
LRQKHEFLEDFDLVRNI [SMC2] | 3.14 ± 0.063
LRQQQQQQDQPEQSEQP [RPN10] | 2.74 ± 0.081
LRQQYEIELKKLPKVYK [SWI1] | 2.22 ± 0.12
LRRLEILVPDLYHLVIM [ECM29] | 1.46 ± 0.065
LSAADIVAQSEVEVSTR [RPO31] | 2.54 ± 0.094
LSCVKNDTISEDILQGI [NUT1] | 2.53 ± 0.11
LSEFGIKKMLHLVWMKG [YCS4] | 2.31 ± 0.15
LSFTPTTVIGIRGSDQA [RPN2] | 1.78 ± 0.15
LSGSISERIVDCIIRLP [FAS1] | 1.23 ± 0.27
LSHENNVMLEKIKDNKE [RPT5] | 2.46 ± 0.054
LSHYIRQCFQDNCCDFK [MED1] | 2.94 ± 0.05
LSILKGDYSQATVLSRK [RPN5] | 3.03 ± 0.075
LSKFFFFIFVFNFVLLG [COB] | 1.09 ± 0.25
LSKLCVPVANQFINLAG [QCR7] | 1.81 ± 0.058
LSLTTVPCDRIEKSRLF [SNF6] | 2.66 ± 0.053

Sequence | protein stability index
LSQPVSASKHEYSDNFP [SIR4] | 2.82 ± 0.071
LSQQQKDAQKKDIEKLT [YIL149C/MLP2] | 2.78 ± 0.064
LSRAEYDSDSDSSVEDS [LIN1] | 2.87 ± 0.085
LSRGDDEVTIRRTVGLK [SMC3] | 2.77 ± 0.078
LSSIAERVRNFAVIYLC [DIB1] | 1.71 ± 0.11
LSSMRFKPSQEPEFHAL [RRI1] | 2.75 ± 0.075
LSTDATSADLKSKAEEL [UBP6] | 2.95 ± 0.19
LSTSAFMEIVLEYNVAL [YML031W/NDC1] | 1.78 ± 0.08
LTADYDALDIANRIGYI [RPL25] | 3.54 ± 0.038
LTEQIRELREVIELPLK [RPT4] | 3.12 ± 0.17
LTGEWSTKFDYPPMPFD [FAS1] | 2.85 ± 0.048
LTGTVVSTKMHRTIVIR [RPS11A] | 2.14 ± 0.08
LTLTDSQLAQVAAFVNN [BRR2] | 2.37 ± 0.15
LTNQQPKNLSTPSTSSN [CSE2] | 2.67 ± 0.066
LTRFSHDADLEVSMNSI [RPN1] | 3.08 ± 0.05
LTSPAFGPHVDVNDVLT [GRR1] | 3.35 ± 0.063
LTTFANQVMMDRKIQGW [ARP7] | 2.45 ± 0.076
LTVENKLQFETDRLSTT [SMC1] | 2.84 ± 0.047
LVDLKKELAELKVQKLS [RPL35A] | 1.46 ± 0.12
LVESVDRFKPNLDIAKD [MED4] | 3.15 ± 0.072
LVHGIFGAKMSRTLILS [SIN4] | 1.36 ± 0.088
LVILKPDLNIDRNNSTN [SIN4] | 2.56 ± 0.065
LVKDRKFLREVFVDGEA [RPO21] | 2.62 ± 0.1
LVKIDDLSANQRETMKE [SMC1] | 3 ± 0.11
LVQQIQKETQKVTKIWS [PRP28] | 2.52 ± 0.058
